Assay [1] addresses 4-1BB (CD137) on human MART-1 reactive T cell clones (TIL 209) (human) (UniProt Q07011). Briefly: cell-based or functional assay.
Assay [2] has as its target human SLAMF6 (NTB-A) on human tumor infiltrating lymphocytes / T cells (human) (UniProt Q96DU3). As to the kind of experiment: cell-based or functional assay.

Sequence of seSLAMF6 (SEQ ID NO: 3; Leu 28-Lys 225 of Q96DU3 fused with a polyhistidine tag at the C-terminus) (Q96DU3 other isoform, or with tags, fused parts or gaps limits assumed): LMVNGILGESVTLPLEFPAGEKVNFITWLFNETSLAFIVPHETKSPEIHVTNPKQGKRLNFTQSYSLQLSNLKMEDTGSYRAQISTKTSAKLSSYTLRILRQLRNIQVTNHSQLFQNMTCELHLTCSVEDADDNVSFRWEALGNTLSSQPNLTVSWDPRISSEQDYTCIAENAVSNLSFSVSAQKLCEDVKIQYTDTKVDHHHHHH
Sequence of human SLAMF6 (NTB-A) on human tumor infiltrating lymphocytes / T cells (human) (Q96DU3 22-332): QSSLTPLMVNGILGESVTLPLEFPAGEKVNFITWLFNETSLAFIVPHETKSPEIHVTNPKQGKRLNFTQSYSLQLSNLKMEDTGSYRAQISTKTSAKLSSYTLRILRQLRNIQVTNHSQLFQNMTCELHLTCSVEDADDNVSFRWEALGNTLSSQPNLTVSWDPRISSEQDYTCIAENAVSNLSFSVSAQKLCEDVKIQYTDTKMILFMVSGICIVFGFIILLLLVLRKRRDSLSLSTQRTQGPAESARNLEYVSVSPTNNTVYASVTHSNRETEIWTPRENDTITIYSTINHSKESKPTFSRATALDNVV
Sequence of 4-1BB (CD137) on human MART-1 reactive T cell clones (TIL 209) (human) (Q07011 24-255 limits assumed): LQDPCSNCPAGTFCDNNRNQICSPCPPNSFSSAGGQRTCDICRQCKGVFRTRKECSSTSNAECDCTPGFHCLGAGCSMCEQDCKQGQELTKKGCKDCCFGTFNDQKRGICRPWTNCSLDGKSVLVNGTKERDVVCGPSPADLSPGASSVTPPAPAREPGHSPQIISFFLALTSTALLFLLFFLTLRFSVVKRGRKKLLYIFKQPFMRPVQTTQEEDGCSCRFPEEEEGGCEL

In assay [1], “4-1BBL expressed on transfected 624mel melanoma cells (mel624/4-1BBL) (from UniProt P41273 1-254) (ligand)” displayed an IFNγ secretion of TIL 209 co-cultured with mel624/4-1BBL in CM (mel624/moc: 4,120) of 8600 pg/mL and an IFNγ secretion of TIL 209 co-cultured with mel624/4-1BBL with BSA (mel624/moc: 3,160) of 10500 pg/mL.
As for “seSLAMF6 (SEQ ID NO: 3; Leu 28-Lys 225 of Q96DU3 fused with a polyhistidine tag at the C-terminus) (from UniProt Q96DU3 28-225) (receptor)”, in assay [2], the CD107a surface expression (lytic degranulation) of human TILs 209 after REP with seSLAMF6 50 µg/ml, co-culture with 526mel came out at 2 fold; the ratio of cell death and apoptosis (PI / Annexin-V, flow cytometry) of melanoma-activated TILs 209 after IL-2 withdrawal, seSLAMF6 10 µg/ml is 4%; the ratio of cell death on Day 7 (PI / annexin-V), TILs expanded by REP-IL-2, then seSLAMF6 50 µg/ml fell in the range of 7 to 11%; the ratio of cell death on Day 7 (PI / annexin-V), TILs expanded by REP-seSLAMF6, then seSLAMF6 50 µg/ml was 7 to 11%.

Values taken from US20160333072A1.
